Patent US20230038638A1, “COMPLEMENT FACTOR I-RELATED COMPOSITIONS AND METHODS” (published 2023)
Substitutions are numbered along the chain they refer to.

How the values were obtained:
human C4b (human) [1] = target: T1, human C4b (human) (UniProt P0C0L4)
T1 sequence: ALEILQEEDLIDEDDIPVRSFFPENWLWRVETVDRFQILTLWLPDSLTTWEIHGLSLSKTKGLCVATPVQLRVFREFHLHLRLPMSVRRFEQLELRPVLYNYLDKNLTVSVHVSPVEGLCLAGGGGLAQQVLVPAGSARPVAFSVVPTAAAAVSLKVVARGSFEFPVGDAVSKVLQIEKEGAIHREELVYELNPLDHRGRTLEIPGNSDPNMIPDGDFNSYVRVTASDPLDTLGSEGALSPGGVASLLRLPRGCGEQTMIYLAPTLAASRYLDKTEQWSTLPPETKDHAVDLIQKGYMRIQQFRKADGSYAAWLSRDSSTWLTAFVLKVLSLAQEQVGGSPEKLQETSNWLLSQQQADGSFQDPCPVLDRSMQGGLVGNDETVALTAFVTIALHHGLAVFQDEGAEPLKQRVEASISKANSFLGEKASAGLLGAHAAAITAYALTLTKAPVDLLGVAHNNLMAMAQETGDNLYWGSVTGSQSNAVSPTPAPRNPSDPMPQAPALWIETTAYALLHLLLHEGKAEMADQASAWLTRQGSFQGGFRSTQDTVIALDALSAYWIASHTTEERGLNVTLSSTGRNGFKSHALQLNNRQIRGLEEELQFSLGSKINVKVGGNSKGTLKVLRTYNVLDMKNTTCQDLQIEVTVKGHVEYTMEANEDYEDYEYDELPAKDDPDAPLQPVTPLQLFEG

[2] = target: soluble human C3b (human) (UniProt P01024)
human C4b (human) [3] = target: T2, human C4b (human) (UniProt P0C0L5)
T2 sequence: T1 sequence with A151T, D317G, P364L, C365S, L368I, D369H, N420S, V451A, L454R, S530A

[4] = target: soluble human C3b (human) (UniProt P01024); remark: listed apart in the source

CFI-HSA variant E457G; N422K (enzyme)
C4c EC50 (human C4b (human) [1]): 32.6 nM | iC3b EC50 [2]: 5.2 nM | C4b Screen Ref Fold (fold of CFI-HSA wild type) (human C4b (human) [3]): 5.49 | iC3b Screen Ref Fold (fold of CFI-HSA wild type) [4]: 1.51

CFI-HSA variant E457G; N531G; D425K (enzyme)
C4c EC50 (human C4b (human) [1]): 12.7 nM | iC3b EC50 [2]: 4.4 nM | C4b Screen Ref Fold (fold of CFI-HSA wild type) (human C4b (human) [3]): 5.43 | iC3b Screen Ref Fold (fold of CFI-HSA wild type) [4]: 0.99

CFI-HSA variant E457G; N531G; D425R; E416A (enzyme)
C4c EC50 (nM) (human C4b (human) [1]): 4.1 nM | iC3b EC50 [2]: 3.1 nM | C4b Screen Ref Fold (fold of CFI-HSA wild type) (human C4b (human) [3]): 4.54 | iC3b Screen Ref Fold (fold of CFI-HSA wild type) [4]: 2.12

CFI-HSA variant E457G; N531G; E461Q; R462K; F464Y; E416A (enzyme)
C4c EC50 (nM) (human C4b (human) [1]): 7.5 nM | iC3b EC50 [2]: 5.2 nM | C4b Screen Ref Fold (fold of CFI-HSA wild type) (human C4b (human) [3]): 4.38 | iC3b Screen Ref Fold (fold of CFI-HSA wild type) [4]: 2.21

CFI-HSA variant E457G; N531G; K534Q (enzyme)
C4c EC50 (human C4b (human) [1]): 16.9 nM | iC3b EC50 [2]: 7.1 nM | C4b Screen Ref Fold (fold of CFI-HSA wild type) (human C4b (human) [3]): 6.34 | iC3b Screen Ref Fold (fold of CFI-HSA wild type) [4]: 0.96

CFI-HSA variant E457G; N531G; N422K (enzyme)
C4c EC50 (human C4b (human) [1]): 7 nM | iC3b EC50 [2]: 4.7 nM | C4b Screen Ref Fold (fold of CFI-HSA wild type) (human C4b (human) [3]): 4.37 | iC3b Screen Ref Fold (fold of CFI-HSA wild type) [4]: 1.46

CFI-HSA variant E457G; N531G; P535G; K534Q (enzyme)
C4c EC50 (human C4b (human) [1]): 48.3 nM | iC3b EC50 [2]: 8.2 nM | C4b Screen Ref Fold (fold of CFI-HSA wild type) (human C4b (human) [3]): 5.28 | iC3b Screen Ref Fold (fold of CFI-HSA wild type) [4]: 2.34

CFI-HSA variant E457G; N531G; P558S (enzyme)
C4c EC50 (human C4b (human) [1]): 17.5 nM | iC3b EC50 [2]: 6.7 nM | C4b Screen Ref Fold (fold of CFI-HSA wild type) (human C4b (human) [3]): 5.87 | iC3b Screen Ref Fold (fold of CFI-HSA wild type) [4]: 0.92

CFI-HSA variant E457G; P535G (enzyme)
C4c EC50 (human C4b (human) [1]): 158 nM | iC3b EC50 [2]: 13.8 nM | C4b Screen Ref Fold (fold of CFI-HSA wild type) (human C4b (human) [3]): 1.93 | iC3b Screen Ref Fold (fold of CFI-HSA wild type) [4]: 0.68

CFI-HSA variant E457G; P535G; D425K (enzyme)
C4c EC50 (human C4b (human) [1]): 90 nM | iC3b EC50 [2]: 6 nM | C4b Screen Ref Fold (fold of CFI-HSA wild type) (human C4b (human) [3]): 4.15 | iC3b Screen Ref Fold (fold of CFI-HSA wild type) [4]: 1.02

CFI-HSA variant E457H (enzyme)
C4c EC50 (nM) (human C4b (human) [1]): 886 nM | iC3b EC50 [2]: 78.7 nM | C4b Screen Ref Fold (fold vs CFI-HSA wild type) (human C4b (human) [3]): 0.31 | iC3b Screen Ref Fold (fold vs CFI-HSA wild type) [4]: 0.26

CFI-HSA variant E457I (enzyme)
C4c EC50 (nM) (human C4b (human) [1]): 256 nM | iC3b EC50 [2]: 20.5 nM | C4b Screen Ref Fold (fold vs CFI-HSA wild type) (human C4b (human) [3]): 1.75 | iC3b Screen Ref Fold (fold vs CFI-HSA wild type) [4]: 0.99

CFI-HSA variant E530D; F537K (enzyme)
C4c EC50 (nM) (human C4b (human) [1]): 373 nM | iC3b EC50 [2]: 15.6 nM | C4b Screen Ref Fold (fold vs CFI-HSA wild type) (human C4b (human) [3]): 0.92 | iC3b Screen Ref Fold (fold vs CFI-HSA wild type) [4]: 0.98

CFI-HSA variant E530F (enzyme)
C4c EC50 (nM) (human C4b (human) [1]): > 1000 nM | iC3b EC50 [2]: 21.8 nM | C4b Screen Ref Fold (fold vs CFI-HSA wild type) (human C4b (human) [3]): 0.08 | iC3b Screen Ref Fold (fold vs CFI-HSA wild type) [4]: 0.98

CFI-HSA variant E530G; N531G (enzyme)
C4c EC50 (nM) (human C4b (human) [1]): > 1000 nM | iC3b EC50 [2]: 31.3 nM | C4b Screen Ref Fold (fold vs CFI-HSA wild type) (human C4b (human) [3]): 0.04 | iC3b Screen Ref Fold (fold vs CFI-HSA wild type) [4]: 0.54

CFI-HSA variant E530Y (enzyme)
C4c EC50 (nM) (human C4b (human) [1]): 381 nM | iC3b EC50 [2]: 16.1 nM | C4b Screen Ref Fold (fold vs CFI-HSA wild type) (human C4b (human) [3]): 0.33 | iC3b Screen Ref Fold (fold vs CFI-HSA wild type) [4]: 1.16

CFI-HSA variant F464Y (enzyme)
C4c EC50 (nM) (human C4b (human) [1]): 347 nM | iC3b EC50 [2]: 55.4 nM | C4b Screen Ref Fold (fold vs CFI-HSA wild type) (human C4b (human) [3]): 0.55 | iC3b Screen Ref Fold (fold vs CFI-HSA wild type) [4]: 0.27

CFI-HSA variant F537K (enzyme)
C4c EC50 (nM) (human C4b (human) [1]): 890 nM | iC3b EC50 [2]: 40.2 nM | C4b Screen Ref Fold (fold vs CFI-HSA wild type) (human C4b (human) [3]): 0.3 | iC3b Screen Ref Fold (fold vs CFI-HSA wild type) [4]: 1.28

CFI-HSA variant F537R (enzyme)
C4c EC50 (nM) (human C4b (human) [1]): 645 nM | iC3b EC50 [2]: 29.1 nM | C4b Screen Ref Fold (fold vs CFI-HSA wild type) (human C4b (human) [3]): 0.16 | iC3b Screen Ref Fold (fold vs CFI-HSA wild type) [4]: 1.08

CFI-HSA variant F559L; Y563H (enzyme)
C4c EC50 (human C4b (human) [1]): 130 nM | iC3b EC50 [2]: 39.6 nM | C4b Screen Ref Fold (fold of CFI-HSA wild type) (human C4b (human) [3]): 1.03 | iC3b Screen Ref Fold (fold of CFI-HSA wild type) [4]: 0.71

CFI-HSA variant G556A (enzyme)
C4c EC50 (human C4b (human) [1]): > 1000 nM | iC3b EC50 [2]: 76 nM | C4b Screen Ref Fold (fold of CFI-HSA wild type) (human C4b (human) [3]): 1.06 | iC3b Screen Ref Fold (fold of CFI-HSA wild type) [4]: 0.15

CFI-HSA variant G556S (enzyme)
C4c EC50 (human C4b (human) [1]): 180 nM | iC3b EC50 [2]: 29.7 nM | C4b Screen Ref Fold (fold of CFI-HSA wild type) (human C4b (human) [3]): 1.53 | iC3b Screen Ref Fold (fold of CFI-HSA wild type) [4]: 0.55

CFI-HSA variant K504A (enzyme)
C4c EC50 (nM) (human C4b (human) [1]): > 1000 nM | iC3b EC50 [2]: 51.9 nM | C4b Screen Ref Fold (fold vs CFI-HSA wild type) (human C4b (human) [3]): 0.23 | iC3b Screen Ref Fold (fold vs CFI-HSA wild type) [4]: 0.41

CFI-HSA variant K504H (enzyme)
C4c EC50 (nM) (human C4b (human) [1]): 229 nM | iC3b EC50 [2]: 53.6 nM | C4b Screen Ref Fold (fold vs CFI-HSA wild type) (human C4b (human) [3]): 3.84 | iC3b Screen Ref Fold (fold vs CFI-HSA wild type) [4]: 0.54

CFI-HSA variant K504L (enzyme)
C4c EC50 (nM) (human C4b (human) [1]): > 1000 nM | iC3b EC50 [2]: 144 nM | C4b Screen Ref Fold (fold vs CFI-HSA wild type) (human C4b (human) [3]): 0.01 | iC3b Screen Ref Fold (fold vs CFI-HSA wild type) [4]: 0.12

CFI-HSA variant K504R (enzyme)
C4c EC50 (nM) (human C4b (human) [1]): 439 nM | iC3b EC50 [2]: 33.7 nM | C4b Screen Ref Fold (fold vs CFI-HSA wild type) (human C4b (human) [3]): 0.51 | iC3b Screen Ref Fold (fold vs CFI-HSA wild type) [4]: 0.89

CFI-HSA variant K534Q (enzyme)
C4c EC50 (nM) (human C4b (human) [1]): 595 nM | iC3b EC50 [2]: 21.7 nM | C4b Screen Ref Fold (fold vs CFI-HSA wild type) (human C4b (human) [3]): 1.76 | iC3b Screen Ref Fold (fold vs CFI-HSA wild type) [4]: 1.53

CFI-HSA variant N422K (enzyme)
C4c EC50 (nM) (human C4b (human) [1]): 359 nM | iC3b EC50 [2]: 10.9 nM | C4b Screen Ref Fold (fold vs CFI-HSA wild type) (human C4b (human) [3]): 2.13 | iC3b Screen Ref Fold (fold vs CFI-HSA wild type) [4]: 1.36

CFI-HSA variant N476Q (enzyme)
C4c EC50 (nM) (human C4b (human) [1]): > 1000 nM | iC3b EC50 [2]: 15.7 nM | C4b Screen Ref Fold (fold vs CFI-HSA wild type) (human C4b (human) [3]): 0.85 | iC3b Screen Ref Fold (fold vs CFI-HSA wild type) [4]: 1.03

CFI-HSA variant N518Q (enzyme)
C4c EC50 (nM) (human C4b (human) [1]): 510 nM | iC3b EC50 [2]: 20.2 nM | C4b Screen Ref Fold (fold vs CFI-HSA wild type) (human C4b (human) [3]): 1.11 | iC3b Screen Ref Fold (fold vs CFI-HSA wild type) [4]: 1

CFI-HSA variant N531G; D425K (enzyme)
C4c EC50 (human C4b (human) [1]): 51.9 nM | iC3b EC50 [2]: 5.2 nM | C4b Screen Ref Fold (fold of CFI-HSA wild type) (human C4b (human) [3]): 4.7 | iC3b Screen Ref Fold (fold of CFI-HSA wild type) [4]: 1.19

CFI-HSA variant N531G; E416A (enzyme)
C4c EC50 (nM) (human C4b (human) [1]): 11.9 nM | iC3b EC50 [2]: 6.9 nM | C4b Screen Ref Fold (fold of CFI-HSA wild type) (human C4b (human) [3]): 4.82 | iC3b Screen Ref Fold (fold of CFI-HSA wild type) [4]: 1.11
